Results from patent US20210145976A1 (ARO BIOTHERAPEUTICS, published 2021).
Positions count from the first letter of the chain named.

B1: SEQ ID NO 167 (designed binder)
chain: MLPAPKNLVVSRVTEDSARLSWTAPDAAFDSFFIGYLEPQPPGEAIVLTVPGSERSYDLTGLKPGTEYNVTIQGVKGGTPSEPLSAIFTT
notes: FN3 domain
B2: SEQ ID NO 170 (designed binder)
chain: MLPAPKNLVVSRVTEDSARLSWTAPDAAFDSFFIGYPEYPATGEAIVLTVPGSERSYDLTGLKPGTEYFVDINGVKGGSLSYPLSAIFTT
notes: FN3 domain
B3: SEQ ID NO 183 (designed binder)
chain: MLPAPKNLVVSRVTEDSARLSWTAPDAAFDSFLIPYAETSPSGEAIVLTVPGSERSYDLTGLKPGTEYSVLIHGVKGGRPSNPLVAAFTT
notes: FN3 domain
B4: SEQ ID NO 187 (designed binder)
chain: MLPAPKNLVVSRVTEDSARLSWTAPDAAFDSFVIEYFEFVGYGEAIVLTVPGSERSYDLTGLKPGTEYSVGIYGVKGGKLSPPLSAIFTT
notes: FN3 domain
B5: SEQ ID NO 188 (designed binder)
chain: B3 chain with R79K, P80L, N82L, V85S, A87I
notes: FN3 domain
B6: SEQ ID NO 181 (designed binder)
chain: MLPAPKNLVVSHVTEDSARLSWTAPDAAFDSFPIAYAEPRPDGEAIVLTVPGSERSYDLTGLKPGTEYSVLIHGVKGGLLSSPLSAIFTT
notes: FN3 domain
B7: SEQ ID NO 179 (designed binder)
chain: B6 chain with H12R, P33Y, S69P, L71P, H73P, L79P, L80G
notes: FN3 domain
B8: SEQ ID NO 192 (designed binder)
chain: B1 chain with P25L, T79F, E82M
notes: FN3 domain
B9: SEQ ID NO 175 (designed binder)
chain: B1 chain with N69S, T71V, T79F, E82D
notes: FN3 domain
B10: SEQ ID NO 178 (designed binder)
chain: B6 chain with H12R, P33D, R40I, D42R, L79R, L80R, S82V
notes: FN3 domain
B11: SEQ ID NO 177 (designed binder)
chain: B1 chain with T79R, P80A, E82G
notes: FN3 domain
B12: SEQ ID NO 176 (designed binder)
chain: B6 chain with H12R, L71G, L79H, L80D
notes: FN3 domain
B13: SEQ ID NO 185 (designed binder)
chain: MLPAPKNLVVSRVTEDSARLSWTAPDAAFDSFEIDYDELAIYGEAIVLTVPGSERSYDLTGLKPGTEYGVMIIGVKGGLPSDPLSAIFTT
notes: FN3 domain
B14: SEQ ID NO 169 (designed binder)
chain: B1 chain with T79F, E82V
notes: FN3 domain
B15: SEQ ID NO 180 (designed binder)
chain: MLPAPKNLVVSRVTEDSARLSWTAPDAAFDSFEISYYEMRGYGEAIVLTVPGSERSYDLTGLKPGTEYSVLIHGVEGGDYSSPLSAISTT
notes: FN3 domain
B16: SEQ ID NO 182 (designed binder)
chain: B1 chain with Q40Y, N69V, T71S, E82Q
notes: FN3 domain

molecular target: T1, recombinant biotinylated CD71 extracellular domain (Sino Biologics) with an N-terminal 6His tag (human, UniProt P02786 89-760, biotinylated (sites not given)); experiment: screening ELISA, ratio
T1 construct: extracellular domain; also called hCD71; huCD71
T1 sequence (P02786 other isoform, or with tags, fused parts or gaps): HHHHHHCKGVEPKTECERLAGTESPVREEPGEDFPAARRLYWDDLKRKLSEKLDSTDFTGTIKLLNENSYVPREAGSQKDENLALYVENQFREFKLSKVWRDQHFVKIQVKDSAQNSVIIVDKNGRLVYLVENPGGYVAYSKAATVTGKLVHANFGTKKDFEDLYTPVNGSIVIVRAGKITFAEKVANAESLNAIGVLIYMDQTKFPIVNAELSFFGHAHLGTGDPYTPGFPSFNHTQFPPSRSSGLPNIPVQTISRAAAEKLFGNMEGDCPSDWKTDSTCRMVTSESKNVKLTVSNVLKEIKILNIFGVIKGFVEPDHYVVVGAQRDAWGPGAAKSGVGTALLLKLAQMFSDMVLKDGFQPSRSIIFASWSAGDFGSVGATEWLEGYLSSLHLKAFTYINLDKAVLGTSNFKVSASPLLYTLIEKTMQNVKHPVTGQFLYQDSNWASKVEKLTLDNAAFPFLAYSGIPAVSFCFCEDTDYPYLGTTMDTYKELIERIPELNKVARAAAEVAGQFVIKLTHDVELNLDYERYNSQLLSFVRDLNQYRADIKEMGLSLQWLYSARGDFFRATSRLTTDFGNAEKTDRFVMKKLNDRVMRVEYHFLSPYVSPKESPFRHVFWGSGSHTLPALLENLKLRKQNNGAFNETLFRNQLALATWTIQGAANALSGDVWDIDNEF

Binder | hCD71:HSA
B1 | 727
B2 | 58
B3 | 161
B4 | 422
B5 | 797
B6 | 491
B7 | 36
B8 | 650
B9 | 2220
B10 | 644
B11 | 1060
B12 | 129
B13 | 182
B14 | 1060
B15 | 50
B16 | 1060

molecular target: T1, recombinant biotinylated CD71 …; experiment: screening ELISA

Binder | hCD71
B1 | 2.62e+06
B2 | 982000
B3 | 1.72e+06
B4 | 3.06e+06
B5 | 2.67e+06
B6 | 2.95e+06
B7 | 2.68e+06
B8 | 2.67e+06
B9 | 3.55e+06
B10 | 1.45e+06
B11 | 2.61e+06
B12 | 1.34e+06
B13 | 1.81e+06
B14 | 2.85e+06
B15 | 1.68e+06
B16 | 3.12e+06
